T1: human CCL17 (human, UniProt Q92583 24-94)
T1 construct: Biotinylated in the Fab ELISAs; also called huCCL17; Bt-huCCL17
T1 sequence: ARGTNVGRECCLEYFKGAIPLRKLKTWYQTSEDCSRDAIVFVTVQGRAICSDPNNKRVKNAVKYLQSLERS

T2: cyno CCL17 (Macaca fascicularis (cyno), UniProt Q8HYP9 24-94 (rhesus entry))
T2 construct: Biotinylated in the Fab ELISAs; also called cCCL17; cCCL-17
T2 sequence: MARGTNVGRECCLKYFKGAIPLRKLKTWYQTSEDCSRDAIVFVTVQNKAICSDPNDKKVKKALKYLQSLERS


Tests used:
human CCL17 [1] = target: T1, human CCL17; assay: solution equilibrium affinity (MSD-SEA), TBST, 48 h at 4 °C
Experimental: (§1) Equal volumes of the anti-hCCL17 mAbs at 40 pM or 200 pM were added to each chemokine dilution to obtain mixtures containing the serial dilution of chemokines starting at a final concentration of […] and a constant concentration (20 pM or 100 pM) of anti-CCL17 antibody. The mixtures were prepared in duplicate and incubated at 4° C. for 48 hours to reach equilibrium. The free antibody was detected using a SECTOR Imager 6000 (Meso Scale Discovery) instrument. The resulting binding curves were fitted to obtain the dissociation equilibrium constant (KD) using the GraphPad Prism software (v 5.01) using a 1:1 binding model to perform nonlinear least-square regression analysis of the data.

cyno CCL17 [2] = target: T2, cyno CCL17; assay: as above
Experimental: as §1

human CCL17 [3] = target: T1, human CCL17; assay: MSD-SEA; affinity for human CCL17 against that for cyno CCL17
Experimental: as §1

cyno CCL17 [4] = target: T2, cyno CCL17; assay: cell-based or functional assay
human CCL17 [5] = target: T1, human CCL17; assay: cell-based or functional assay
human CCL17 [6] = target: T1, human CCL17; assay: not stated in the legend (affinities by MSD-SEA in Examples 3 and 4)
cyno CCL17 [7] = target: T2, cyno CCL17; assay: solution equilibrium affinity (MSD-SEA), IgG1
Experimental: as §1

human CCL17 [8] = target: T1, human CCL17; assay: solution equilibrium affinity (MSD-SEA), IgG1
Experimental: as §1

Kd (human CCL17 [1]) [nM] | Kd (cyno CCL17 [2]) [nM] | Fold binding human/cyno CCL17 (human CCL17 [3]) [fold] | IC50 (nM), calcium flux assay in CCRF-CEM cells, 5 ng/ml cyno CCL17 (cyno CCL17 [4]) [nM] | IC50 (nM), calcium flux assay in CCRF-CEM cells, 10 ng/ml human CCL17 (human CCL17 [5]) [nM] | Kd (human CCL17 [6]) [nM] | Kd (cyno CCL17 [7]) [nM] | Kd (human CCL17 [8]) [nM] | Binder
1 |  |  |  |  |  |  |  | C17F24 (parent) (antibody, V domains shown) VH: EVQLVQSGAEVKKPGESLKISCKGSGYSFTSYWIGWVRQMPGKGLEWMGIIDPSDSDTRYSPSFQGQVTISADKSISTAYLQWSSLKASDTAMYYCARVGPADVWDSFDYWGQGTLVTVSS VL: not shown
0.167 | 0.384 | 2.3 | 0.34 | 0.483 |  |  |  | C17B242 (antibody, V domains shown, Full IgG1, kappa) VH: EVQLVQSGAEVKKPGESLKISCKGSGYSFTSYWIGWVRQMPGKGLEWMGIIDPSDSDTRYSPSFQGQVTISADKSISTAYLQWSSLKASDTAMYYCARVGPADVWDSFDYWGQGTLVTVSS VL: DIVMTQSPDSLAVSLGERATINCKSSQSVLFSHDNLNTLAWYQQKPGQPPKLLIYHASTRESGVPDRFSGSGSGTDFTLTISSLQAEDVAVYYCQQYYAVPQTFGQGTKVEIK
0.05 | 0.583 | 11.7 | 0.339 | 0.456 | ≤ 100 |  |  | C17B241 (antibody, V domains shown, Full IgG1, kappa) VH: EVQLVQSGAEVKKPGESLKISCKGSGYSFTSYWIGWVRQMPGKGLEWMGIIDPSDSDTRYSPSFQGQVTISADKSISTAYLQWSSLKASDTAMYYCARVGPADVWDSFDYWGQGTLVTVSS VL: DIVMTQSPDSLAVSLGERATINCKSSQSVLNSFTNNNALAWYQQKPGQPPKLLIYEASTRESGVPDRFSGSGSGTDFTLTISSLQAEDVAVYYCQQTNSIPLTFGQGTKVEIK
0.083 | 4.6 | 55.4 | 0.308 | 0.405 | ≤ 100 |  |  | C17B240 (antibody, V domains shown, Full IgG1, kappa) VH: EVQLVQSGAEVKKPGESLKISCKGSGYSFTSYWIGWVRQMPGKGLEWMGIIDPSDSDTRYSPSFQGQVTISADKSISTAYLQWSSLKASDTAMYYCARVGPADVWDSFDYWGQGTLVTVSS VL: DIVMTQSPDSLAVSLGERATINCKSSQSVLYSHVNYNALAWYQQKPGQPPKLLIYNASTRESGVPDRFSGSGSGTDFTLTISSLQAEDVAVYYCQQYYTLPATFGQGTKVEIK
 |  | 72.8 |  |  |  | 0.0364 | 0.0005 | C17B260 (antibody, IgG1, V domains shown, Expressed as IgG1; Light chain N50G (Kabat) variant of C17B234) VH: EVQLVQSGAEVKKPGESLKISCKGSGYSFTSYWIGWVRQMPGKGLEWMGIIDPSDSDTRYSPSFQGQVTISADKSISTAYLQWSSLKASDTAMYYCARVGPADVWDSFDYWGQGTLVTVSS VL: DIVMTQSPDSLAVSLGERATINCKSSQSVLLSFDNINKLAWYQQKPGQPPKLLIYGASTRESGVPDRFSGSGSGTDFTLTISSLQAEDVAVYYCQQFYSVPSTFGQGTKVEIK
0.033 | 0.565 | 17.1 | 0.311 |  | ≤ 100 |  |  | C17B244 (antibody, V domains shown, Full IgG1, kappa) VH: EVQLVQSGAEVKKPGESLKISCKGSGYSFTSYWIGWVRQMPGKGLEWMGIIDPSDSDTRYSPSFQGQVTISADKSISTAYLQWSSLKASDTAMYYCARVGPADVWDSFDYWGQGTLVTVSS VL: DIVMTQSPDSLAVSLGERATINCKSSQSVLSSITNVNDLAWYQQKPGQPPKLLIYTASTRESGVPDRFSGSGSGTDFTLTISSLQAEDVAVYYCQQYYHDPFTFGQGTKVEIK
0.072 | 9.5 | 132 | 0.919 | 0.558 | ≤ 100 |  |  | C17B235 (antibody, V domains shown, Full IgG1, kappa) VH: EVQLVQSGAEVKKPGESLKISCKGSGYSFTSYWIGWVRQMPGKGLEWMGIIDPSDSDTRYSPSFQGQVTISADKSISTAYLQWSSLKASDTAMYYCARVGPADVWDSFDYWGQGTLVTVSS VL: not shown
0.657 | 3.07 | 4.7 | 0.549 | 0.882 |  |  |  | C17B237 (antibody, V domains shown, Full IgG1, kappa) VH: EVQLVQSGAEVKKPGESLKISCKGSGYSFTSYWIGWVRQMPGKGLEWMGIIDPSDSDTRYSPSFQGQVTISADKSISTAYLQWSSLKASDTAMYYCARVGPADVWDSFDYWGQGTLVTVSS VL: not shown
0.028 | 0.677 | 24.2 | 0.31 | 0.231 | ≤ 100 |  |  | C17B243 (antibody, V domains shown, Full IgG1, kappa) VH: EVQLVQSGAEVKKPGESLKISCKGSGYSFTSYWIGWVRQMPGKGLEWMGIIDPSDSDTRYSPSFQGQVTISADKSISTAYLQWSSLKASDTAMYYCARVGPADVWDSFDYWGQGTLVTVSS VL: DIVMTQSPDSLAVSLGERATINCKSSQSVLNSFDNKNDLAWYQQKPGQPPKLLIYEASTRESGVPDRFSGSGSGTDFTLTISSLQAEDVAVYYCQQHWQTPLTFGQGTKVEIK
 |  | 756 |  |  |  | 0.0756 | 0.0001 | C17B263 (antibody, IgG1, V domains shown, Expressed as IgG1; Light chain N50T (Kabat) variant of C17B234) VH: EVQLVQSGAEVKKPGESLKISCKGSGYSFTSYWIGWVRQMPGKGLEWMGIIDPSDSDTRYSPSFQGQVTISADKSISTAYLQWSSLKASDTAMYYCARVGPADVWDSFDYWGQGTLVTVSS VL: DIVMTQSPDSLAVSLGERATINCKSSQSVLLSFDNINKLAWYQQKPGQPPKLLIYTASTRESGVPDRFSGSGSGTDFTLTISSLQAEDVAVYYCQQFYSVPSTFGQGTKVEIK
 |  | 656 |  |  |  | 0.0656 | 0.0001 | C17B257 (antibody, IgG1, V domains shown, Expressed as IgG1; Light chain N50A (Kabat) variant of C17B234) VH: EVQLVQSGAEVKKPGESLKISCKGSGYSFTSYWIGWVRQMPGKGLEWMGIIDPSDSDTRYSPSFQGQVTISADKSISTAYLQWSSLKASDTAMYYCARVGPADVWDSFDYWGQGTLVTVSS VL: DIVMTQSPDSLAVSLGERATINCKSSQSVLLSFDNINKLAWYQQKPGQPPKLLIYAASTRESGVPDRFSGSGSGTDFTLTISSLQAEDVAVYYCQQFYSVPSTFGQGTKVEIK
0.092 | 0.63 | 6.8 | 0.43 | 0.427 | ≤ 100 |  |  | C17B239 (antibody, V domains shown, Full IgG1, kappa) VH: EVQLVQSGAEVKKPGESLKISCKGSGYSFTSYWIGWVRQMPGKGLEWMGIIDPSDSDTRYSPSFQGQVTISADKSISTAYLQWSSLKASDTAMYYCARVGPADVWDSFDYWGQGTLVTVSS VL: DIVMTQSPDSLAVSLGERATINCKSSQSVLSSFTNTNTLAWYQQKPGQPPKLLIYHASTRESGVPDRFSGSGSGTDFTLTISSLQAEDVAVYYCQQYLIYPSTFGQGTKVEIK
 |  | 416 |  |  |  | 0.0416 | 0.0001 | C17B258 (antibody, IgG1, V domains shown, Expressed as IgG1; Light chain N50D (Kabat) variant of C17B234) VH: EVQLVQSGAEVKKPGESLKISCKGSGYSFTSYWIGWVRQMPGKGLEWMGIIDPSDSDTRYSPSFQGQVTISADKSISTAYLQWSSLKASDTAMYYCARVGPADVWDSFDYWGQGTLVTVSS VL: DIVMTQSPDSLAVSLGERATINCKSSQSVLLSFDNINKLAWYQQKPGQPPKLLIYDASTRESGVPDRFSGSGSGTDFTLTISSLQAEDVAVYYCQQFYSVPSTFGQGTKVEIK
 |  | 171 |  |  |  | 29.9 | 0.175 | C17B295 (antibody, IgG1, V domains shown, Expressed as IgG1; Heavy chain D100bE (Kabat) paired with the light chain of C17B258) VH: EVQLVQSGAEVKKPGESLKISCKGSGYSFTSYWIGWVRQMPGKGLEWMGIIDPSDSDTRYSPSFQGQVTISADKSISTAYLQWSSLKASDTAMYYCARVGPADVWESFDYWGQGTLVTVSS VL: DIVMTQSPDSLAVSLGERATINCKSSQSVLLSFDNINKLAWYQQKPGQPPKLLIYDASTRESGVPDRFSGSGSGTDFTLTISSLQAEDVAVYYCQQFYSVPSTFGQGTKVEIK
0.115 | 1.46 | 12.7 | 0.348 | 0.387 |  |  |  | C17B238 (antibody, V domains shown, Full IgG1, kappa) VH: EVQLVQSGAEVKKPGESLKISCKGSGYSFTSYWIGWVRQMPGKGLEWMGIIDPSDSDTRYSPSFQGQVTISADKSISTAYLQWSSLKASDTAMYYCARVGPADVWDSFDYWGQGTLVTVSS VL: DIVMTQSPDSLAVSLGERATINCKSSQSVLISAFNQNPLAWYQQKPGQPPKLLIYDASTRESGVPDRFSGSGSGTDFTLTISSLQAEDVAVYYCQQYQFIPFTFGQGTKVEIK
